The record followed here is patent US20230242651A1 (published 2023).

Assay [1] has as its target T1, human TNF (human, UniProt P01375 77-233). The experiment in a line: SPR, scFv; footnote: interference with SPR measurement.
For assay [2], the target named is T2, human interleukin-23 receptor (IL23R) (human, UniProt Q5VWK5 24-355, limits assumed).
T2 construct: also called human IL23R
T2 sequence (looked up): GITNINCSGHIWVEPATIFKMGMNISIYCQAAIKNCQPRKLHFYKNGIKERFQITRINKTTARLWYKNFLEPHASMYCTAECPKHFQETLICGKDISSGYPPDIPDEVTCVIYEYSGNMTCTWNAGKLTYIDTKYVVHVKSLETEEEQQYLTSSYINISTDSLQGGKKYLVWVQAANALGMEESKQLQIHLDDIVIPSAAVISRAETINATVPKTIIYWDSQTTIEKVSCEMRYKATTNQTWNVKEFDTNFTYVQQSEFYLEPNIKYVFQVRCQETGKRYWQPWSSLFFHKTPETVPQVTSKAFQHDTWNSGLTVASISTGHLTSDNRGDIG
Briefly: SPR; KD of the capped scFv over KD of its uncapped counterpart. In a few lines: (§1)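 Humanized rabbit variable domains were built as single-chain variable fragments (scFv) on consensus germline framework pairs, some carrying a λ-cap in which Vκ framework IV was replaced by a Vλ germline sequence. These were expressed in E. coli as inclusion bodies, then solubilized and refolded in a generic refolding buffer. Affinity for human IL23R was determined by surface plasmon resonance and reported as rate constants and dissociation constant, or as the ratio of the λ-capped to uncapped dissociation constant.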
For orientation: Surface plasmon resonance follows binding to a sensor surface in real time, without labels.

Assay [3] deals with T2, human interleukin-23 receptor (IL23R). Briefly: SPR, scFv. In a few lines: as §1
The target is the same in assay [4]. Briefly: SPR, scFv (summary table). In a few lines: as §1
The target of assay [5] is T1, human TNF. Briefly: SPR, scFv.

T1 sequence (P01375 77-233 limits assumed): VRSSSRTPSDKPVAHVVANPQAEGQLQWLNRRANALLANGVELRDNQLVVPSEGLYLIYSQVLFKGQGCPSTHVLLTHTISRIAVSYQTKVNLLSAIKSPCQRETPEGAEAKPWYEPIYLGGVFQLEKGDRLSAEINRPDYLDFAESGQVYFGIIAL

B1: VK3/VH3 consensus λ-capped, TNF-specific scFv (scFv)
scFv: DIVLTQSPATLSLSPGERATLSCQASQSISDWLAWYQQKPGQAPRLLIYGASRLASGVPARFSGSGSGTDFTLTISSLEPEDFAVYYCQQGWSDSYVDNLFGGGTKLTVLGGGGGSGGGGSGGGGSGGGGSEVQLVESGGGLVQPGGSLRLSCAASGFSLSSGAMSWVRQAPGKGLEWVSVIISSGATYYASWAKGRFTISRDNSKNTLYLQMNSLRAEDTAVYYCARGGPDDSNSMGTFDPWGQGTLVTVSS
What is called Kd is the concentration at which binding is half-saturated. As a reminder, the koff is the first-order rate constant of dissociation. One may read the kon as the rate constant with which the complex forms. As for B1, in the assay with human TNF [1], binding was characterised by a dissociation constant (Kd) of 1.82 nM, the koff amounted to 0.000529 s⁻¹ and the on-rate constant (kon) was 290000 M⁻¹ s⁻¹.

B2: Vκ3/VH2 consensus λ-capped, human IL23R specific scFv (scFv)
scFv: DIVLTQSPATLSLSPGERATLSCQASENIYSFLAWYQQKPGQAPRLLIYSASKLAAGVPARFSGSGSGTDFTLTISSLEPEDFAVYYCQQTNRYSNPDIYNVFGGGTKLTVLGGGGGSGGGGSGGGGSGGGGSQVQLKESGPALVKPTQTLTLTCTFSGIDFNSNYYMCWIRQPPGKALEWLACIYVGSHVNTYYANWAKGRLTISKDTSKNQVVLTMTNMDPVDTATYYCATSGSSVLYFKFWGQGTLVTVSS
notes: scFv VL-linker-VH, made in E. coli; also called Vκ3VH2 capped
Regarding B2, the “Ratio (capped/uncapped) of KD” value in assay [2] amounted to 0.2. In assay [3], this molecule returned a Kd of 0.0916 nM, a koff of 0.000152 s⁻¹ and a kon of 1.66e+06 M⁻¹ s⁻¹. In assay [4], this molecule came in with a Kd of 0.0916 nM.

B3: Vκ3/VH1A consensus λ-capped, human IL23R specific scFv (scFv)
scFv: DIVLTQSPATLSLSPGERATLSCQASENIYSFLAWYQQKPGQAPRLLIYSASKLAAGVPARFSGSGSGTDFTLTISSLEPEDFAVYYCQQTNRYSNPDIYNVFGGGTKLTVLGGGGGSGGGGSGGGGSGGGGSQVQLVQSGAEVKKPGSSVKVSCKASGIDFNSNYYMCWVRQAPGQGLEWMGCIYVGSHVNTYYANWAKGRVTITADESTSTAYMELSSLRSEDTAVYYCATSGSSVLYFKFWGQGTLVTVSS
notes: scFv VL-linker-VH, made in E. coli; also called Vκ3VH1A capped
On to B3, for which, in assay [2], the “Ratio (capped/uncapped) of KD” value came out at 2. In assay [3], this molecule registered a Kd of 0.585 nM, a koff of 0.00117 s⁻¹ and a kon of 2e+06 M⁻¹ s⁻¹. This molecule also gave a Kd in assay [4] of 0.585 nM.

B4: Vκ3/VH1B consensus λ-capped, human IL23R specific scFv (scFv)
scFv: DIVLTQSPATLSLSPGERATLSCQASENIYSFLAWYQQKPGQAPRLLIYSASKLAAGVPARFSGSGSGTDFTLTISSLEPEDFAVYYCQQTNRYSNPDIYNVFGGGTKLTVLGGGGGSGGGGSGGGGSGGGGSQVQLVQSGAEVKKPGASVKVSCKASGIDFNSNYYMCWVRQAPGQGLEWMGCIYVGSHVNTYYANWAKGRVTMTRDTSISTAYMELSSLRSEDTAVYYCATSGSSVLYFKFWGQGTLVTVSS
notes: scFv VL-linker-VH, made in E. coli; also called Vκ3VH1B capped
For B4, in assay [2], the “Ratio (capped/uncapped) of KD” value amounted to 0.4. In assay [3], this molecule registered a Kd of 0.181 nM, a koff of 0.000506 s⁻¹ and a kon of 2.8e+06 M⁻¹ s⁻¹. This molecule displayed a Kd in assay [4] of 0.181 nM.

B5: Vκ2/VH6 consensus λ-capped, human IL23R specific scFv (scFv)
scFv: DIVMTQSPLSLPVTPGEPASISCQASENIYSFLAWYLQKPGQSPQLLIYSASKLAAGVPDRFSGSGSGTDFTLKISRVEAEDVGVYYCQQTNRYSNPDIYNVFGGGTKLTVLGGGGGSGGGGSGGGGSGGGGSQVQLQQSGPGLVKPSQTLSLTCAISGIDFNSNYYMCWIRQSPGRGLEWLGCIYVGSHVNTYYANWAKGRITINPDTSKNQFSLQLNSVTPEDTAVYYCATSGSSVLYFKFWGQGTLVTVSS
notes: scFv VL-linker-VH, made in E. coli; also called Vκ2VH6 capped
With B5, the “Ratio (capped/uncapped) of KD” value in assay [2] came to 0.3. Besides, in assay [3], the Kd is 0.887 nM, the koff was 0.000475 s⁻¹ and the kon was 535000 M⁻¹ s⁻¹. Binding in assay [4] was put at a Kd of 0.887 nM.

B6: Vκ2/VH5 consensus λ-capped, human IL23R specific scFv (scFv)
scFv: DIVMTQSPLSLPVTPGEPASISCQASENIYSFLAWYLQKPGQSPQLLIYSASKLAAGVPDRFSGSGSGTDFTLKISRVEAEDVGVYYCQQTNRYSNPDIYNVFGGGTKLTVLGGGGGSGGGGSGGGGSGGGGSEVQLVQSGAEVKKPGESLKISCKGSGIDFNSNYYMCWVRQMPGKGLEWMGCIYVGSHVNTYYANWAKGQVTISADKSISTAYLQWSSLKASDTAMYYCATSGSSVLYFKFWGQGTLVTVSS
notes: scFv VL-linker-VH, made in E. coli; also called Vκ2VH5 capped
In the case of B6, the “Ratio (capped/uncapped) of KD” value in assay [2] was determined as 1.6. In assay [3], this molecule showed a Kd of 0.476 nM, a koff of 0.000715 s⁻¹ and a kon of 1.5e+06 M⁻¹ s⁻¹. Moreover, in assay [4], the affinity, expressed as Kd, was 0.476 nM.

B7: VK1/VH3 consensus λ-capped, TNF-specific scFv (scFv)
scFv: DIQMTQSPSSLSASVGDRVTITCQASQSISDWLAWYQQKPGKAPKLLIYGASRLASGVPSRFSGSGSGTDFTLTISSLQPEDFATYYCQQGWSDSYVDNLFGGGTKLTVLGGGGGSGGGGSGGGGSGGGGSEVQLVESGGGLVQPGGSLRLSCAASGFSLSSGAMSWVRQAPGKGLEWVSVIISSGATYYASWAKGRFTISRDNSKNTLYLQMNSLRAEDTAVYYCARGGPDDSNSMGTFDPWGQGTLVTVSS
notes: also called capped Vκ1/VH3 consensus molecule (TNF CDRs)
In the assay with human TNF [5], B7 returned a Kd of 0.225 nM, a koff of 9.41e-05 s⁻¹ and a kon of 419000 M⁻¹ s⁻¹.

B8: VK1/VH3 consensus uncapped, TNF-specific scFv (scFv)
scFv: DIQMTQSPSSLSASVGDRVTITCQASQSISDWLAWYQQKPGKAPKLLIYGASRLASGVPSRFSGSGSGTDFTLTISSLQPEDFATYYCQQGWSDSYVDNLFGQGTKVEIKRGGGGSGGGGSGGGGSGGGGSEVQLVESGGGLVQPGGSLRLSCAASGFSLSSGAMSWVRQAPGKGLEWVSVIISSGATYYASWAKGRFTISRDNSKNTLYLQMNSLRAEDTAVYYCARGGPDDSNSMGTFDPWGQGTLVTVSS
notes: also called control molecule (Vκ1/VH3 consensus)
Regarding B8, in the assay with human TNF [5], binding was characterised by a dissociation constant (Kd) of 0.265 nM, the off-rate (koff) is 0.000105 s⁻¹ and the kon turned out to be 395000 M⁻¹ s⁻¹.
